According to patent US20250320295A1 (INHIBRX BIOSCIENCES, published 2025):
Where a chain is given by its changes, count along the chain named. Names and notes keep the numbering of the source.

T1: IL-2 receptor (human, UniProt P01589 22-272; P14784 27-551; P31785 23-369)
T1 sequence (looked up) 1: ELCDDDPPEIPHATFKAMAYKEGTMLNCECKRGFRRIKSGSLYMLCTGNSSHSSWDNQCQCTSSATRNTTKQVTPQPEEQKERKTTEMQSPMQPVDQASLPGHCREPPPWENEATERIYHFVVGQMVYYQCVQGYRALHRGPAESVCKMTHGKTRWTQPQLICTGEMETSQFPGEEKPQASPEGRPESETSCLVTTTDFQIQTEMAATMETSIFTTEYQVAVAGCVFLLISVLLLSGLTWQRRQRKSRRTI
T1 sequence (looked up) 2: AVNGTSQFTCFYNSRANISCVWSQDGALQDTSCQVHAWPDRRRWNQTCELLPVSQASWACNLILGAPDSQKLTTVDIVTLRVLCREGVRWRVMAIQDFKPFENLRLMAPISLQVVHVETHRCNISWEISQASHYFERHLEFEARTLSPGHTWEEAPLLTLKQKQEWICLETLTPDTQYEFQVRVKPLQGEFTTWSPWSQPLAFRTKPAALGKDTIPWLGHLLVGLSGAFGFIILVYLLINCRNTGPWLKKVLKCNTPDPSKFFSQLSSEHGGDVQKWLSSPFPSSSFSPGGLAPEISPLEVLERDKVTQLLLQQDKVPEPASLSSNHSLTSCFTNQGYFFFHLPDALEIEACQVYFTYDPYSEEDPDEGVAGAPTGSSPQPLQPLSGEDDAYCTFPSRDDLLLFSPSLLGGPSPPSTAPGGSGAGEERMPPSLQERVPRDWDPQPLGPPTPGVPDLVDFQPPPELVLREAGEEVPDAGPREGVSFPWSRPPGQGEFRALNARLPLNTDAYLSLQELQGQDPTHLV
T1 sequence (looked up) 3: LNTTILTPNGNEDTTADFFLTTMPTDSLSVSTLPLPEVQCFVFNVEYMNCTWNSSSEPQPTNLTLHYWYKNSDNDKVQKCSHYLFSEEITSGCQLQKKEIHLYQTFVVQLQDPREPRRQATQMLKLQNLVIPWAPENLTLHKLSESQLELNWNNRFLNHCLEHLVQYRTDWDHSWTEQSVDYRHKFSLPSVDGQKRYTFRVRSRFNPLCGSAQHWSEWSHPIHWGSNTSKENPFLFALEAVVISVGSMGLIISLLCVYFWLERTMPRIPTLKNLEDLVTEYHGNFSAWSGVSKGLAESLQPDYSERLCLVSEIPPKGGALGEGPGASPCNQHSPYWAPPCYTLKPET

B1: hzB7v31-xELL-KiH Fc-IL-2 mutant (Fc fusion)
chain 1: QVQLVQSGGGEVQPGGSLRLSCAASGFTFDDYAMSWVRQAPGKGLEWVSTITWDAGGTYYAAPVKGRFTISRDNAKNTVYLQMSSLRAEDTAVYYCAKGSPELQYDTWGQGTLVTVKPDKTHTCPPCPAPGGPSVFLFPPKPKDTLMISRTPEVTCVVVDVSHEDPEVKFNWYVDGVEVHNAKTKPREEQYNSTYRVVSVLTVLHQDWLNGKEYKCKVSNKALPAPIEKTISKAKGQPREPQVCTLPPSRDELTKNQVSLSCAVKGFYPSDIAVEWESNGQPENNYKTTPPVLDSDGSFFLVSKLTVDKSRWQQGNVFSCSVMHEALHNRYTQKSLSLSPGK
chain 2: QVQLVQSGGGEVQPGGSLRLSCAASGFTFDDYAMSWVRQAPGKGLEWVSTITWDAGGTYYAAPVKGRFTISRDNAKNTVYLQMSSLRAEDTAVYYCAKGSPELQYDTWGQGTLVTVKPDKTHTCPPCPAPGGPSVFLFPPKPKDTLMISRTPEVTCVVVDVSHEDPEVKFNWYVDGVEVHNAKTKPREEQYNSTYRVVSVLTVLHQDWLNGKEYKCKVSNKALPAPIEKTISKAKGQPREPQVYTLPPCRDELTKNQVSLWCLVKGFYPSDIAVEWESNGQPENNYKTTPPVLDSDGSFFLYSKLTVDKSRWQQGNVFSCSVMHEALHNHYTQKSLSLSPG
B2: hzB7v30-xELL-KiH Fc-IL-2 mutant (Fc fusion)
chain 1: B1 chain 1 with Y59D
chain 2: B1 chain 2 with Y59D
notes: Knob-in-hole heterodimer: VHH on the N-terminus of each Fc, mutant IL-2 only on the knob Fc; not shown: mutant, attenuated IL-2 fused to the C-terminus of the knob Fc
B3: hzB7v33-xELL-KiH Fc-IL-2 mutant (Fc fusion)
chain 1: B1 chain 1 with D54S, G56E
chain 2: B1 chain 2 with D54S, G56E
notes: as for B2
B4: hzB7v34-xELL-KiH Fc-IL-2 mutant (Fc fusion)
chain 1: B1 chain 1 with D54S, Y59D
chain 2: B1 chain 2 with D54S, Y59D
notes: as for B2
B5: hzB7v37-xELL-KiH Fc-IL-2 mutant (Fc fusion)
chain 1: B1 chain 1 with Q13K
chain 2: B1 chain 2 with Q13K
notes: as for B2
B6: hzB7v39-xELL-KiH Fc-IL-2 mutant (Fc fusion)
chain 1: B1 chain 1 with Q13K, D54S, G56E
chain 2: B1 chain 2 with Q13K, D54S, G56E
notes: as for B2
B7: hzB7v29-xELL-Fc (Fc fusion)
chain: B1 chain 1 with G56E, C244Y, S261T, A263L, V302Y, R330H
notes: Homodimeric VHH-human IgG1 Fc xELL fusion
B8: hzB7v31-xELL-Fc (Fc fusion)
chain: B1 chain 1 with C244Y, S261T, A263L, V302Y, R330H
notes: Homodimeric VHH-human IgG1 Fc xELL fusion; also called CD8a-hzB7v31-Fc-xELL
B9: hzB7v35-xELL-Fc (Fc fusion)
chain: B1 chain 1 with Q13K, G56E, C244Y, S261T, A263L, V302Y, R330H
notes: as for B7
B10: hzB7v41-xELL-Fc (Fc fusion)
chain: B1 chain 1 with K117R, C244Y, S261T, A263L, V302Y, R330H
notes: as for B7
B11: hzB7v28-xELL-P329G-KiH Fc-IL-2 mutant (Fc fusion)
chain 1: B1 chain 2 with G56E, Y59D, P224G, Y244C, C249S, W261S, L263A, Y302V, H330R
chain 2: B1 chain 2 with G56E, Y59D, P224G
notes: as for B2

Assays:
IL-2 receptor = target: T1, IL-2 receptor; assay: cell-based or functional assay
Human CD8a [1] = target: T2, Human CD8a (human, UniProt P01732 22-235); assay: flow cytometry, isolated human T cells, PI-CD4- gate (table title says transfected HEK293F cells)
T2 construct: also called CD8α; human CD8a-FL
Procedure: Binding of polypeptides comprising a humanized CD8a-binding VHH domain, an Fc region, and, in certain polypeptides, a mutated, attenuated IL-2 fused to the C-terminus of the Fc region, was assessed by flow cytometry on isolated human T cells. […] Complexes or polypeptides that are not labeled “KiH” form homodimers under physiologic conditions. The isolated cells were plated in a 96-well plate at 50,000 cells per well in FACS buffer (PBS, 1% BSA, 0.1% NaN₃, pH 7.4). Test polypeptides were then diluted to 2× the final concentration of 200 nM, and a 5-fold serial dilution was made. FACS buffer with no polypeptide was used as a secondary antibody-only control. Test polypeptides were added to an equal volume of cells, and assay plates were incubated for 30 minutes at 4° C. After washing twice with 150 μL of FACS buffer per well, the cells were resuspended in FACS buffer with a fluorescently-labeled anti-human IgG antibody diluted 1:1000 to detect CD8α binding and fluorescently labeled anti-CD4 antibody (clone OKT4, 1:200). Propidium iodide (PI) was added at 1:2000 to distinguish live cells from dead cells. Assay plates were incubated at 4° C. for 30 minutes. After one additional wash with 150 μL of FACS buffer, polypeptide bound to CD8α was detected by flow cytometry on PI-CD4− and on PI-CD4+ cells. Binding was measured on these cell populations as mean fluorescence intensity (MFI) at 647 nm. Flow cytometric detection was performed on an ACEA Biosciences Novocyte-Quanteon Flow Cytometer. The data were plotted and analyzed using GraphPad Prism analysis software.

Cynomolgus monkey CD8a [2] = target: T3, Cynomolgus monkey CD8a (cynomolgus monkey); assay: flow cytometry, cynomolgus PBMC, PI-CD3+CD4- gate
T3 construct: whole, on cells; On transfected HEK293F cells (full length) or natively on cynomolgus PBMC T cells; also called cynomolgus CD8a-FL; cynomolgus monkey CD8α
Procedure: (§1) Binding of four polypeptides comprising a humanized CD8a-binding VHH domain fused to an xELL fc region was assessed by flow cytometry on isolated human T cells and on isolated human or cynomolgus monkey peripheral blood mononuclear cells (PBMC). The isolated cells were plated in a 96-well plate at 200,000 cells per well for cynomolgus monkey PBMC, and 100,000 cells per well for human T cells in FACS buffer (PBS, 1% BSA, 0.1% NaN₃, pH 7.4). […] FACS buffer alone was used as a secondary antibody-only control. Polypeptide dilutions were added to an equal volume of cells, and assay plates were incubated for 30 minutes at 4° C. After washing twice with 150 μL of FACS buffer per well, the cells were resuspended in FACS buffer with a fluorescently labeled anti-human IgG antibody diluted 1:1000 to detect CD8α binding, fluorescently labeled anti-CD3 antibody (clone SP34.2, 1:50, for PBMC preparations only), and fluorescently labeled anti-CD4 antibody (clone OKT4, 1:100). Propidium iodide (PI) was added at 1:2000 to distinguish live cells from dead cells. Assay plates were incubated at 4° C. for 30 minutes. After one additional wash with 150 μL of FACS buffer CD8α binding was detected by flow cytometry on PI−(CD3+) CD4− cells. Binding was measured on these cell populations as mean fluorescence intensity (MFI) at 647 nm. Flow cytometric detection was performed on an ACEA Biosciences Novocyte-Quanteon Flow Cytometer. The data were plotted and analyzed using GraphPad Prism analysis software. The results are shown in Table 12 and 13 and in FIGS. 10A-D.

Cynomolgus monkey CD8a [3] = target: T3, Cynomolgus monkey CD8a; assay: flow cytometry on CD8 T cells (PI- CD3+ CD4-) within cynomolgus monkey PBMC, fluorescent anti-human IgG secondary, MFI at 647 nm
Procedure: as §1, with “Flow cytometric detection was performed on an ACEA Biosciences Novocyte-Quanteon Flow Cytometer.” left out, “The results are shown in Table 12 and 13 and in FIGS. 10A-D.” left out

Human CD8a [4] = target: T2, Human CD8a; assay: flow cytometry, HEK293F cells transfected with human CD8a (citrine+ gate)
Procedure: Binding of polypeptides comprising a humanized CD8a-binding VHH domain, an Fc region, and, in certain polypeptides, a mutated, attenuated IL-2 fused to the C-terminus of the Fc region, was assessed by flow cytometry on HEK293F cells transiently transfected with a plasmid encoding human CD8α or CD8b chains. […] Complexes or polypeptides that are not labeled “KiH” form homodimers under physiologic conditions. The transfected cells were plated in a 96-well plate at 50,000 cells per well in FACS buffer (PBS, 1% BSA, 0.1% NaN₃, pH 7.4). Test polypeptides were then diluted to 2× the final concentration of 500 nM, and a 6-fold serial dilution was made. FACS buffer with no polypeptide was used as a secondary antibody-only control. Test polypeptides were added to an equal volume of cells, and assay plates were incubated for 30 minutes at 4° C. After washing twice with 150 μL of FACS buffer per well, the cells were resuspended in FACS buffer with a fluorescently-labeled anti-human Fc antibody diluted 1:1000 to detect CD8 binding. Assay plates were incubated at 4° C. for 30 minutes. After one additional wash with 150 μL of FACS buffer, polypeptide bound to CD8 was detected by flow cytometry on cells positive for the transfection marker citrine. Binding was measured on these cell populations as mean fluorescence intensity (MFI) at 647 nm. Flow cytometric detection was performed on an IntelliCyt iQue Screener Plus. The data were plotted and analyzed using GraphPad Prism analysis software.

T2 sequence (P01732 22-235): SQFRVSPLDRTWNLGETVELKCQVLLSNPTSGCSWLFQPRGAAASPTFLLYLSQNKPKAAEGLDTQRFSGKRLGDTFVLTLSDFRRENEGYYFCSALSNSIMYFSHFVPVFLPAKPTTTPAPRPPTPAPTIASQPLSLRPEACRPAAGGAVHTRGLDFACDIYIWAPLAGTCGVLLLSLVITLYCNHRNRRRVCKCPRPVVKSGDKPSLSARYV

Binder	Kd (Human CD8a [1]) [nM]	Kd (Cynomolgus monkey CD8a [2]) [nM]	further results
B1			EC50 of pSTAT5 induction in human CD8 T cells (IL-2 receptor): < 30 pM
B2	0.0943		Bmax (MFI) (Human CD8a [1]): 247000 MFI
B3	0.139		
B4	4.05		Bmax (MFI) (Human CD8a [1]): 76100 MFI
B5	0.0884		Bmax (MFI) (Human CD8a [1]): 272000 MFI
B6	0.148		
B7		0.0317	
B8		0.0389	EC50 (read off the curve) (Cynomolgus monkey CD8a [3]): ~0.05 nM
B9		0.0236	
B10		0.0499	
B11			Bmax (MFI) (Human CD8a [4]): 1.37e+07 MFI; Kd (Human CD8a [4]): 2.84 nM
